We go through 1 protein from publication PMC2723119, “A new cold-adapted β-D-galactosidase from the Antarctic Arthrobacter sp. 32c – gene cloning, overexpression, purification and properties” (BMC Microbiology, 2009).

Substrate in the series: O=[N+]([O-])c1ccccc1O[C@@H]1O[C@H](CO)[C@H](O)[C@H](O)[C@H]1O
Briefly: purified protein. To be noted: 50 °C (optimum; also at 10, 20, 30, 40, 55 °C), pH 6.5, 0.02 M potassium phosphate. It counts as biochemical, Arthrobacter sp.

B1: Arthrobacter sp. 32c β-D-galactosidase (Arthrobacter sp.) (protein)
chain: MGKRFPSGWFSPRVHPPRRQRSPMTNQATPGTASVWNNIEGIGFGGDYNPEQWPVSVRLEDLELMQEAGVNFLSVGIFSWALLEPAEGQYDFGWLDDVMDNLHGIGVKVALATATAAPPAWLVRKHPEILPVTADGTTLGPGSRRHYTPSSAVYRKYAAGITRVLAERYKDHPALALWHVDNELGCHVSEFYGEEDAAAFRLWLERRYGTIDALNAAWGTAFWSQHYGSFEEILPPGVAPSTLNPGQQLDFQRFNSWALMDYYRSLVAVLREVTPAVPCTTNLMASSATKSMDYFSWAKDLDVIANDHYLVAADPERHIELAFSADLTRGIAGGDPWILMEHSTSAVNWQPRNQPKMPGEMLRNSLAHVARGADAVMFFQWRQSFAGSEKFHSAMVPHGGRDTRVWREVVDLGAALQLLAPVRGSRVESRAAIVFDYEAWWASEIDSKPSIDVRYLDLLRAFHRSLFLRGVSVDMVHPSASLDGYDLVLVCTLYSVTDEAAANIAAAAAGGATVLVSYFSGITDEKDHVRLGGYPGAFRELLGVRVEEFHPLLAGSQLKLSDGTVSSIWSEHVHLDGAEAFQTFTGYPLEGVPSLTRRAVGTGAAWYLATFPDRDGIESLVDRLLAESGVSPVAEADAGVELTRRRSADGGSFLFAINHTRAAASVRASGTDVLSGERFTGTVEAGSVAVIAED
notes: full length, recombinant, no tag apparent (own stop codon in reverse primer); starts MGKRFPS (from primer)
In the case of B1, the Km turned out to be 2620 ± 210 µM, the kcat stood at 212.4 ± 1.67 s⁻¹ and the kcat/Km was determined as 81100 ± 7760 M⁻¹ s⁻¹.

In general, Km refers to the substrate concentration at which the rate is half of its maximum. What is called kcat is the maximal rate divided by the concentration of active sites. As usually defined, the kcat/Km is the turnover number divided by the Michaelis constant.
